Assay [1] concerns the target T1, complement C1q (from human serum) (human, UniProt P02745 23-245; P02746 28-253; P02747 29-245).
T1 construct: mature; Native C1q in human serum diluted 1/100
In words: ELISA: antibody captured on NGF-coated plate, human serum 1/100, bound C1q detected with anti-C1q-HRP, OD450. Here is the method:
Protein A purified transfectant supernatants from Example 2 were incubated with plates coated with 0.1 ng/mL NGF to capture the antibodies. The plates were washed and then incubated with human serum and bound complement C1q was measured by binding of anti-human C1q polyclonal antibody HRP and developed as above. The binding of C1q to antigen-captured “eqN-HC2+eqN-kLC-1” was compared to a human anti-NGF MAb with human IgG1 Fc domain as positive control and an IgG4 variant as negative control.
Plates were coated with 100 μl/well of 5 μg/ml mouse NGF and blocked with 5% BSA/PBS. Coated wells were incubated for 1 hour at room temperature with cell culture supernatants, containing recombinant equine anti-NGF IgG, diluted in PBS/1% BSA (100 μl/well). The plates were washed and incubated for 1 hour at room temperature with 100 μl/well of human serum diluted 1/100 in veronal buffered saline containing 0.5 mM MgCl₂, 2 mM CaCl2, 0.05% Tween-20, 0.1% gelatin and 0.5% BSA. After washing, plates were incubated with 100 μl of a 1/800 dilution of sheep anti-C1q-HRP (Serotec) in PBS/1% BSA. After washing, plates were developed by the addition of 100 μl TMB substrate (Thermo Scientific). Development was stopped by the addition of 100 μl of 2N H₂SO₄ and absorbance read at 450 nm.
For orientation: In an ELISA, binding on a coated surface is turned into a signal by an enzyme label.

A further assay deals with T2, murine NGF (mouse, UniProt P01139 122-241).
T2 construct: Coated on the ELISA plate; also called mouse NGF
In words: ELISA: CHO supernatant on NGF, goat anti-equine IgG-HRP, OD450, against mock supernatant. Here is the method: Equinised heavy and light chain cDNAs were transfected into CHO cells, the supernatants harvested and reacted in ELISA format with either equine or murine NGF. Following incubation and wash steps, the bound equine antibody was detected by reactivity with a goat-anti equine IgG specific polyclonal antibody linked to horseradish peroxidase (HRP) and developed using TMB. The optical density of the resulting product was measured at 450 nm and compared with that from mock empty vector transfected supernatant (denoted as “Mock” in FIG. 1). The results are shown in the graph of FIG. 1. Binding to mouse NGF is shown for the HC2 (IgG2 constant domain) equinised antibody (termed eqN-HC2+eqN-kLC-1). In the second part of the graph, binding of the eqN-HC2+eqN-kLC-1 antibody comprising the eqN-kLC-1 light chain and the eqN-HC2 (IgG2) constant chain to equine NGF is shown.

Another assay concerns the target T3, Protein A (UniProt P38507 37-327).
T3 construct: Column resin
In words: Protein A affinity chromatography of CHO supernatant; antibody in fractions measured by quantitative NGF ELISA.

These results are taken from patent US20140170136A1 (NVIP, published 2014).

T1 sequence (P02745 23-245, chain 1 of 3): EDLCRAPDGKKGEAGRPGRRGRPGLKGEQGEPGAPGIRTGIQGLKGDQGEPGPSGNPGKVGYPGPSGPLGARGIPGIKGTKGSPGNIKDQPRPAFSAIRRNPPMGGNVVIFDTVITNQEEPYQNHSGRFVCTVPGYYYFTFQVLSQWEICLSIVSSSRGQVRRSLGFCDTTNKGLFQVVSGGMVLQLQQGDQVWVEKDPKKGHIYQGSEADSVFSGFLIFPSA
T1 sequence (P02746 28-253, chain 2 of 3): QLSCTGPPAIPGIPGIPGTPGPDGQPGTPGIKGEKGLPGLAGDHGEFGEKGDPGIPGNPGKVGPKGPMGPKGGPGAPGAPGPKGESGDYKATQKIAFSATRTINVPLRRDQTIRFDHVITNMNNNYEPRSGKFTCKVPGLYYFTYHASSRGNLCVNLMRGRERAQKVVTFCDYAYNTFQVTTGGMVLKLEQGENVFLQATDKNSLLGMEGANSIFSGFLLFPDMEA
T1 sequence (P02747 29-245, chain 3 of 3): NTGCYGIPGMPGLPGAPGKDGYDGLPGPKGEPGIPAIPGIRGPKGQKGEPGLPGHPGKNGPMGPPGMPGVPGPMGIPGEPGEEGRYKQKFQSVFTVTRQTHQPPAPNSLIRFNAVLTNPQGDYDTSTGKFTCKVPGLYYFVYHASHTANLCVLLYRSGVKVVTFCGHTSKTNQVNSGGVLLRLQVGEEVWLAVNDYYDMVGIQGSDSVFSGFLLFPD
T2 sequence (P01139 122-241 limits assumed): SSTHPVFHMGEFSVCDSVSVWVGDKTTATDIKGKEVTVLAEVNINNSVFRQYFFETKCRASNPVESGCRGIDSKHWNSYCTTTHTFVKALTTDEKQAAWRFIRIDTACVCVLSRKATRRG

B1: eqN-HC2+eqN-kLC-1 (equinised αD11 anti-NGF antibody comprising the eqN-kLC-1 light chain and the eqN-HC2 (IgG2) heavy chain) (antibody)
heavy: QVQLKESGPGLVNPSQTLSLTCTVSGFSLTNNNVNWVRQAPGKGLEWVGGVWAGGATDYNSALKSRATITRDTSKSQVFLQMNSLTSEDTAVYYCARDGGYSSSTLYAMDAWGQGILVTVSSASTTAPKYFQLTPSCGITSDATVALGCLVSDYYPEPVTVSWNSGALTSGVHTFPSVLQSSGLYALSSMVTVPASTWTSETYICNVAHPASSTKVDKRIPPCVLSAEGVIPIPSVPKPQCPPYTHSKFLGGPSVFIFPPNPKDALMISRTPVVTCVVVNLSDQYPDVQFSWYVDNTEVHSAITKQREAQFNSTYRVVSVLPIQHQDWLSGKEFKCSVTNVGVPQPISRAISRGKGPSRVPQVYVLPPHPDELAKSKVSVTCLVKDFYPPDISVEWQSNRWPELEGKYSTTPAQLDGDGSYFLYSKLSLETSRWQQVESFTCAVMHEALHNHFTKTDISESLGK
light: DIVMTQSPASLSASLGETVTIECRASEDIYNALAWYQQKPGQSPKLLIYNTDTLHTGVPSRFSGSGSGTDYSLTINSLQSEDVASYFCQHYFHYPRTFGQGTKLELKRDDAKPSAFIFPPSSEELSSGSASVVCLVYGFYPSGATINWKVDGLAKTSSFHSSLTEQDSKDNTYSLSSTLTLPKADYEAHNVYACEVSHKTLSSPLVKSFKRQDC
notes: Tested as CHO transfectant supernatant or after Protein A purification; also called HC2 (IgG2 constant domain) equinised antibody; equinised HC2 antibody
As for B1, the binding result was “no binding” in assay [1] and “binds” with murine NGF.

B2: HC6 variant of equinised αD11 (equinised anti-NGF antibody with eqN-HC6 heavy chain and equine kappa light chain) (antibody)
heavy: QVQLKESGPGLVNPSQTLSLTCTVSGFSLTNNNVNWVRQAPGKGLEWVGGVWAGGATDYNSALKSRATITRDTSKSQVFLQMNSLTSEDTAVYYCARDGGYSSSTLYAMDAWGQGILVTVSSASTTAPKVFQLASHSAGTSDSTVALGCLVSSYFPEPVTVSWNSGALTSGVHTFPSVRQSSGLYSLSSMVTVPASSLKSQTYICNVAHPASSTKVDKRIVIKEPCCCPKCPGRPSVFIFPPNPKDTLMISRTPEVTCVVVDVSQENPDVKFNWYVDGVEAHTATTKAKEKQDNSTYRVVSVLPIQHQDWRRGKEFKCKVNNRALPAPVERTITKAKGELQDPKVYILAPHREEVTKNTVSVTCLVKDFYPPDINVEWQSNEEPEPEVKYSTTPAQLDGDGSYFLYSKLTVETDRWEQGESFTCVVMHEAIRHTYRQKSITNFPGK
light: DIVMTQSPASLSASLGETVTIECRASEDIYNALAWYQQKPGQSPKLLIYNTDTLHTGVPSRFSGSGSGTDYSLTINSLQSEDVASYFCQHYFHYPRTFGQGTKLELKRDDAKPSAFIFPPSSEELSSGSASVVCLVYGFYPSGATINWKVDGLAKTSSFHSSLTEQDSKDNTYSLSSTLTLPKADYEAHNVYACEVSHKTLSSPLVKSFKRQDC
notes: also called HC6 antibody; type 6 (HC6) antibody
For B2, in the assay with Protein A, the binding result was “no binding”.
